Reference: patent publication US20090082262A1 (published 2009)
*: point of attachment. Nonanoyl = CCCCCCCCC(=O)*

Legend:
[1] = target: T1, chemokine receptor 1 (CCR1) (UniProt P56482 1-355); test: competition with 125I-Rantes binding to CCR1
chemokine receptor CCR3 = target: T2, chemokine receptor CCR3 (UniProt P51677 1-355, limits assumed); test: competition with 0.1 nM 125I-Eotaxin, membranes of CHO-K1 cells expressing CCR3, filtration
T2 construct: whole, on cells
T2 sequence (looked up): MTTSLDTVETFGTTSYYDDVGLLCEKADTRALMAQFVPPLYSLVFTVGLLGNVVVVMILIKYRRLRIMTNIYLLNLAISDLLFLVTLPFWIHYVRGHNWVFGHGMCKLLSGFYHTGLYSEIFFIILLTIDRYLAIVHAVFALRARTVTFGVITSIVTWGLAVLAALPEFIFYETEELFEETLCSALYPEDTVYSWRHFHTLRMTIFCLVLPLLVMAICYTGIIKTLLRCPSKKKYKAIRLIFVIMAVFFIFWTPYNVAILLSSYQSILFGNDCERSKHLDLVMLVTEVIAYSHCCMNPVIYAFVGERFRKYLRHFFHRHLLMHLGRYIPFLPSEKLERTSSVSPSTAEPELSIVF
Method: (§1) For determination of its binding properties, CHO-K1 cells were used which were stably transfected with the chemokine receptors CCR1, CCR3, CCR5. Therefore, crude membrane extracts prepared from the CHO-K1 cell lines expressing the various GPC were used in radioligand binding assays. Competition binding assays were performed in Minisorp tubes (Nunc, Roskilde, Denmark) in a total volume of 100 μl containing 0.1 nM iodinated ligand as tracer, variable concentrations of competitors and defined amount of membranes. Total binding was measured in the absence of competitor and non-specific binding was measured with a 100-fold excess, of unlabelled ligand. Samples were incubated for 90 minutes at 25° C. then filtered through GF/B filters presoaked in 0.3% polyethylenenimine. Filters were counted in a gamma scintillation counter (Packard). Binding parameters were determined with the PRISM software (Graphpad software, San Diego, Calif.) using non-linear regression applied to a one site competition model.
The processed chemokine PHC-1 was a strong competitor of ¹²⁵I-Rantes binding to CCR1 with half-maximal inhibitory concentration of 2.3±0.7 nM. (Ki±SEM).

[2] = target: T1, chemokine receptor 1 (CCR1); test: competition with 0.1 nM 125I-Rantes, membranes of CHO-K1 cells expressing CCR1, filtration
[3] = target: T3, chemokine receptor 5 (CCR5) (human, UniProt P51681 1-352); test: radioligand competition binding as in Example 4
T3 construct: whole, on cells
T3 sequence (P51681 whole entry): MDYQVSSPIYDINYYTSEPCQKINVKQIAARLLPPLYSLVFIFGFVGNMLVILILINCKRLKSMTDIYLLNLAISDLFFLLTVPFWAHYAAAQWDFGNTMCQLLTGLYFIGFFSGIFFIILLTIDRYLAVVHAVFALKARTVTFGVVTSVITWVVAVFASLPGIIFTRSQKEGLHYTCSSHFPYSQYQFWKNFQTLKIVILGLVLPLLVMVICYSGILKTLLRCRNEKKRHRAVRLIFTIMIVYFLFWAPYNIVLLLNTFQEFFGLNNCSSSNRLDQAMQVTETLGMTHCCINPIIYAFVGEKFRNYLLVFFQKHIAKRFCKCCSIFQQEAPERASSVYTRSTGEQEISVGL
Method: as §1
FIG. 6 represents the compound PHC-1, full size HCC-1 and reference chemokines tested on CCR1, CCR3 and CCR5. Competition binding assays were performed with [¹²⁵I]-RANTES for CCR1, [¹²⁵I]-Eotaxin for CCR3 and [¹²⁵I]-MIP-1, for CCR5. PHC-1, HCC1, MIP-1, RANTES, Eotaxin and MCP-4 were used as competitors. […]

[4] = target: T3, chemokine receptor 5 (CCR5); test: competition with [125I]-MIP-β1, CHO-K1 membranes
Method: as §1
FIG. 6 represents the compound PHC-1, full size HCC-1 and reference chemokines tested on CCR1, CCR3 and CCR5. Competition binding assays were performed with [¹²⁵I]-RANTES for CCR1, [¹²⁵I]-Eotaxin for CCR3 and [¹²⁵I]-MIP-1, for CCR5. PHC-1, HCC1, MIP-1, RANTES, Eotaxin and MCP-4 were used as competitors. FIGS. 3 and 4 show the binding of additional chemokine compounds of the invention to the CCR5 and CCR1 respectively. Competition assays were performed with [¹²⁵I]-MIP-β1 for CCR5, and [¹²⁵I]-MIP-α1 for CCR1. Each of the chemokine compounds tested was capable of binding both the CCR5 and CCR1 receptors.

[5] = target: T1, chemokine receptor 1 (CCR1); test: radioligand competition binding on CCR1

T1 sequence (P56482 whole entry): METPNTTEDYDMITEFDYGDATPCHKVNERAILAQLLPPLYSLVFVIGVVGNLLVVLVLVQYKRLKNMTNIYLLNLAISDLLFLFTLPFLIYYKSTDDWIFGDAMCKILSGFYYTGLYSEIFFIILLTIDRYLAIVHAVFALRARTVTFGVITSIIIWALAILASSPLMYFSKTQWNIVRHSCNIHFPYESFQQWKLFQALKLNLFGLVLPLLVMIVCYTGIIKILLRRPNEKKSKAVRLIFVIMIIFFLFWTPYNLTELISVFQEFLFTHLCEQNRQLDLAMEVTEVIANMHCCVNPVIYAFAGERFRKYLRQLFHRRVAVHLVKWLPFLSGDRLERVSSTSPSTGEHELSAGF

B1: PHC-1 (HCC-1[9-74]) (ligand)
chain: GPYHPSECCFTYTTYKIPRQRIMDYYETNSQCSKPGIVFITKRGHSVCTNPSDKWVQDYIKDMKEN
notes: Purified from human hemofiltrate or made by tryptic digestion of HCC-1 1-74; also called processed chemokine PHC-1; HCC-1, residues 9-74
Work on B1 yielded a Ki [1] of 23000 nM, an IC50 (chemokine receptor CCR3) of 78 nM and an IC50 [2] of 2.3 nM.

B2: NNY-HCC-1[10-74] (ligand)
chain: Nonanoyl-PYHPSECCFTYTTYKIPRQRIMDYYETNSQCSKPGIVFITKRGHSVCTNPSDKWVQDYIKDMKEN
modifications: ends and bridges not checked
notes: An N-terminally modified analog of HCC-1[10-74]; also called nonanoyl-HCC-1[10-74]
B2: binds [3].

B3: HCC-1[8-74] (ligand)
chain: RGPYHPSECCFTYTTYKIPRQRIMDYYETNSQCSKPGIVFITKRGHSVCTNPSDKWVQDYIKDMKEN
notes: Synthetic, oxidatively folded
B3: binds [4].

B4: HCC-1[7-74] (ligand)
chain: SRGPYHPSECCFTYTTYKIPRQRIMDYYETNSQCSKPGIVFITKRGHSVCTNPSDKWVQDYIKDMKEN
notes: Synthetic, oxidatively folded
B4: binds [4].

B5: full size HCC-1 (HCC-1, residues 1-74) (ligand)
chain: TKTESSSRGPYHPSECCFTYTTYKIPRQRIMDYYETNSQCSKPGIVFITKRGHSVCTNPSDKWVQDYIKDMKEN
notes: The 74-residue chemokine, Mr 8673; also called full-length HCC-1; HCC-1, 1-74
B5 was tested, and the Ki [5] was 100 nM.

B6: HCC-1[10-74] (ligand)
chain: PYHPSECCFTYTTYKIPRQRIMDYYETNSQCSKPGIVFITKRGHSVCTNPSDKWVQDYIKDMKEN
notes: Synthetic, oxidatively folded
B6: binds [4].

B7: HCC-1[11-74] (ligand)
chain: YHPSECCFTYTTYKIPRQRIMDYYETNSQCSKPGIVFITKRGHSVCTNPSDKWVQDYIKDMKEN
notes: Synthetic, oxidatively folded
B7: binds [4].
